The target of the assay is T1, Met (UniProt P08581 25-932, limits assumed).
T1 construct: Met as the partner of the printed Kd; The assay and the construct are not described; also called HGFR; hepatocyte growth factor receptor
The assay can be described thus: not stated (given as a property of the antibody in Material and Methods).

As usually defined, the Kd is the free concentration of one partner at which half of the binding sites on the other are occupied at equilibrium, for simple one-to-one binding. Read a high Kd as a looser complex.

T1 sequence (P08581 25-932 limits assumed): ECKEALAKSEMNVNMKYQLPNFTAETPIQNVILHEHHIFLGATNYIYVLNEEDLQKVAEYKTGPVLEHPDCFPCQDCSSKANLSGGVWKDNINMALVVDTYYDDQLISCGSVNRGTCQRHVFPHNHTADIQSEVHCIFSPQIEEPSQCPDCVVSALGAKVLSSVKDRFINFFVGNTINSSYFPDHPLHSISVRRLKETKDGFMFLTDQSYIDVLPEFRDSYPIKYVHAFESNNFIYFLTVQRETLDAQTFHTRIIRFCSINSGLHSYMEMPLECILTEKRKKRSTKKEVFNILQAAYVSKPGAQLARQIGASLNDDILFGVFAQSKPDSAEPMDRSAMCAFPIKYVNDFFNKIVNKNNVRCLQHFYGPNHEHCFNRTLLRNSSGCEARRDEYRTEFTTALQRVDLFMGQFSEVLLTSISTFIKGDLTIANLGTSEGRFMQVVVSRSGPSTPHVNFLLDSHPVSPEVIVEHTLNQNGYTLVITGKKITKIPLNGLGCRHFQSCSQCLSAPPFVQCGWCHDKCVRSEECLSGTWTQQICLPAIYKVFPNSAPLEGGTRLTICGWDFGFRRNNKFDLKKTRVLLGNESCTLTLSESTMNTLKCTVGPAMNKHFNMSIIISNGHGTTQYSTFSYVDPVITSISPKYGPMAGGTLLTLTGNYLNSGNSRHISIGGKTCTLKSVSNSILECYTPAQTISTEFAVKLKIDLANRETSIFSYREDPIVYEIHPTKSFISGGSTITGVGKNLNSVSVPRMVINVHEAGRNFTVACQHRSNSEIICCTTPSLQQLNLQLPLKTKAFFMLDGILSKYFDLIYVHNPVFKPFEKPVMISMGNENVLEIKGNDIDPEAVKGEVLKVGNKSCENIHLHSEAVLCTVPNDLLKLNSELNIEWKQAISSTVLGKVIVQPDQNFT

B1: murine IgG2a MAb DN30 (antibody, V domains shown)
VH: QVQLQQPGTELVKPGASVKLSCKASGYTFTSYWIHWVKQRPGQGLEWIGEINPSSGRTNYNEKFKNKVTVTVDKSSTTAYMQLSNLTSEDSAVYYCASRGYWGQGTTLTVSS
VL: DIVLTQSPASLAVSLGQRATISCKASQSVDYDGGSYMSWFQQRPGQPPKLLISAASNLESGIPARFSGSGSGTDFTLNIHPVEEEDVATYYCQQSYEDPLTFGAGTKLELKR
notes: Murine IgG2a, intact MAb; also called anti-Met monoclonal antibody produced by the hybridoma cell line ICLC PD 05006
For B1, binding was characterised by a dissociation constant (Kd) of 2.64 nM.

Values taken from patent US20090297439A1 (METHERESIS TRANSLATIONAL RESEARCH, published 2009).
